Test results published in US20250057976A1.

Columns and labels:
[1] = biological target: TrkA (mouse) (UniProt Q3UFB7); experiment: cell-based or functional assay
[2] = biological target: IL31RA (mouse) (UniProt Q8K5B1); experiment: cell-based or functional assay
Sequence of UniProt Q8K5B1 (Q8K5B1 19-716): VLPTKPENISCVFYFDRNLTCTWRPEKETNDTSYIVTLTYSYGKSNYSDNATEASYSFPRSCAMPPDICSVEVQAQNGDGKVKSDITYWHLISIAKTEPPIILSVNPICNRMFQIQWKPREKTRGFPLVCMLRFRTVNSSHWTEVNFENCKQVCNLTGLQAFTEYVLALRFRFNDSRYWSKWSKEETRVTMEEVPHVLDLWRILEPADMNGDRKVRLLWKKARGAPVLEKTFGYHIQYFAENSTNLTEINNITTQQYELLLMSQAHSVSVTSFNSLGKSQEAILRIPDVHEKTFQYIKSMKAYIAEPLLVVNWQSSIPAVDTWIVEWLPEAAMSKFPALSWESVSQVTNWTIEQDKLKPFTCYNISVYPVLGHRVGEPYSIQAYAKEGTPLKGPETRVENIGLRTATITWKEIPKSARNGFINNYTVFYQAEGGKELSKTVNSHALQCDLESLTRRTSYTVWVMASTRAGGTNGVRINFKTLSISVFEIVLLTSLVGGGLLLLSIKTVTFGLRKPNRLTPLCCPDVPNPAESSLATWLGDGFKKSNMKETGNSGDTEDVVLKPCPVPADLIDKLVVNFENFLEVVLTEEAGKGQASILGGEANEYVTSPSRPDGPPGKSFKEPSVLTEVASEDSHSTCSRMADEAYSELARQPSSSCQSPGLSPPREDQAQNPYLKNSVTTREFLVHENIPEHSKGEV

Sequence of UniProt Q3UFB7 (Q3UFB7 34-799): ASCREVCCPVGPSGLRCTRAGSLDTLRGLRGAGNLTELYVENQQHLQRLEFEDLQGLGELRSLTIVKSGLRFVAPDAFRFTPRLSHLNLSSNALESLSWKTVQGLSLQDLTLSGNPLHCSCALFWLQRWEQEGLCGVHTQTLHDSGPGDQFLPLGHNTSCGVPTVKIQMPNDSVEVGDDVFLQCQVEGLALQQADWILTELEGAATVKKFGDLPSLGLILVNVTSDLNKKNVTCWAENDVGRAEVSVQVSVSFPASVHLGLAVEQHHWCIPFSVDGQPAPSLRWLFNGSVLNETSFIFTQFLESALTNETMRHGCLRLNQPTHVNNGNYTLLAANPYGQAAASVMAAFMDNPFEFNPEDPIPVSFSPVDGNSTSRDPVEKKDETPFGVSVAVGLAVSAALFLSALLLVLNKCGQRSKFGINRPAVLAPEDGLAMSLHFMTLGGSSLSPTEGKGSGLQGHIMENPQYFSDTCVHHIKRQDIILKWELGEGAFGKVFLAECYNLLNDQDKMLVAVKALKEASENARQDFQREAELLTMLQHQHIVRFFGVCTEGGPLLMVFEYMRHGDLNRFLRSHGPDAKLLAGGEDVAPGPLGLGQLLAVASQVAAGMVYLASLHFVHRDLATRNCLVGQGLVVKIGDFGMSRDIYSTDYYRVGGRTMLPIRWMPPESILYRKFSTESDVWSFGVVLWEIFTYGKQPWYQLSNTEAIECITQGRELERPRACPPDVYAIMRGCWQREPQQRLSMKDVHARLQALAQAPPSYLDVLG

Row | Substance | TrkA positive DRG cells infected after retro-orbital injection of 3E+10 VG [1] [%] | infected DRG cells that are TrkA positive after retro-orbital injection of 3E+10 VG [1] [%] | overlap of virally infected (tdTomato) sensory neurons with TrkA antibody staining, trigeminal ganglia, 3 weeks after IV injection [1] [%] | overlap of virally infected cells with K14 positive keratinocytes, skin of wildtype mice, subcutaneous 3E+10 VG [2] [percent]
1 | NGF^R121W-SNAP::AAV2-ΔHSPG (from UniProt P03135 1-735) | 80 | 83 | > 80 | –
2 | IL31^K134A-SNAP::AAV2-ΔHSPG (from UniProt P03135 1-735) | – | – | – | 100
